{"source": "patent US20240287164A1", "about": "“ANTIBODIES SPECIFIC TO NELL2 AND METHODS OF USE” (BOARD OF REGENTS, THE UNIVERSITY OF TEXAS SYSTEM, priority 2021, published 2024)", "molecules": {"B1": {"name": "recombinant NELL2: purified recombinant NELL2 protein added to the culture medium (protein, UniProt Q99435 22-816, looked up)", "Protein kinase C-binding …": "LGVDPSLQIDVLTELELGESTTGVRQVPGLHNGTKAFLFQDTPRSIKASTATAEQFFQKLRNKHEFTILVTLKQTHLNSGVILSIHHLDHRYLELESSGHRNEVRLHYRSGSHRPHTEVFPYILADDKWHKLSLAISASHLILHIDCNKIYERVVEKPSTDLPLGTTFWLGQRNNAHGYFKGIMQDVQLLVMPQGFIAQCPDLNRTCPTCNDFHGLVQKIMELQDILAKTSAKLSRAEQRMNRLDQCYCERTCTMKGTTYREFESWIDGCKNCTCLNGTIQCETLICPNPDCPLKSALAYVDGKCCKECKSICQFQGRTYFEGERNTVYSSSGVCVLYECKDQTMKLVESSGCPALDCPESHQITLSHSCCKVCKGYDFCSERHNCMENSICRNLNDRAVCSCRDGFRALREDNAYCEDIDECAEGRHYCRENTMCVNTPGSFMCICKTGYIRIDDYSCTEHDECITNQHNCDENALCFNTVGGHNCVCKPGYTGNGTTCKAFCKDGCRNGGACIAANVCACPQGFTGPSCETDIDECSDGFVQCDSRANCINLPGWYHCECRDGYHDNGMFSPSGESCEDIDECGTGRHSCANDTICFNLDGGYDCRCPHGKNCTGDCIHDGKVKHNGQIWVLENDRCSVCSCQNGFVMCRRMVCDCENPTVDLFCCPECDPRLSSQCLHQNGETLYNSGDTWVQNCQQCRCLQGEVDCWPLPCPDVECEFSILPENECCPRCVTDPCQADTIRNDITKTCLDEMNVVRFTGSSWIKHGTECTLCQCKNGHICCSVDPQCLQEL"}}, "key": {"[1]": {"system": "BAF complexes", "assay": "Gel filtration chromatography of nuclear extract (BAF complex assembly)", "type": "cell-based", "conditions": "A-673 cells; four-hour treatment", "procedure": "Gel filtration chromatography. Nuclear extract was prepared as described (Carey, M. F., et al. (2009) Dignam and Roeder nuclear extract preparation. Cold Spring Harbor protocols 2009, pdb prot5330). The extract (5 mg) was loaded onto HiPrep 16/60 Sephacryl S-400 HR column (GE Healthcare) equilibrated with a gel filtration buffer (150 mM NaCl, 20 mM Hepes-KOH, 10 mM KCl, 1 mM MgCl2, 1 mM EDTA, 1 mM EGTA, 1 mM DTT, pH 7.5). Proteins were eluted at 1 ml/min and 1-ml fractions were collected. Every fourth fraction was concentrated and analyzed by immunoblotting."}, "[2]": {"system": "Robo3-FLAG on A-673 cell surface", "assay": "Robo3-FLAG cell surface staining in NELL2-silenced cells", "type": "cell-based, human", "conditions": "A-673 cells; FIG. 2D", "procedure": "Immunofluorescence. Cells grown on coverslips were fixed with 4% paraformaldehyde for 15 minutes at room temperature, washed with PBS, and permeabilized with 0.2% pre-chilled Triton-X 100/PBS for 5 minutes. The samples were blocked with culture medium for one hour and incubated with the primary antibody for three hours followed by the secondary antibody for one hour. The following primary antibodies were used: rabbit polyclonal anti-NELL2 (NBP1-82527, Novus Biologicals); mouse monoclonal anti-FLAG M2 (F1804, MilliporeSigma); mouse monoclonal anti-CD133 AC133 (130-090-422, Miltenyi Biotec); rabbit polyclonal anti-FLI1 (ab15289, Abcam); and mouse monoclonal anti-CD99 (MS-1633-P0, Thermo Fisher Scientific). The following secondary antibodies were used: Alexa Fluor 488, goat anti-rabbit IgG (A11034, Thermo Fisher Scientific); Alexa Fluor 568, goat anti-rabbit IgG (A11036, Thermo Fisher Scientific); Alexa Fluor 488, goat anti-mouse IgM (A21042, Thermo Fisher Scientific); and Alexa Fluor 594, goat anti-mouse IgG (A11032, Thermo Fisher Scientific). Nuclei were stained with DAPI. DyLight™ 554 Phalloidin (13054, Cell Signaling Technologies) was used to visualize filopodia."}, "[3]": {"system": "BAF complexes", "assay": "BAF subunit protein levels by immunoblotting in Ewing sarcoma cells", "type": "cell-based, human", "text": "Immunoblotting. […] The following antibodies were used: rabbit polyclonal anti-FLI1 (ab15289, Abcam); mouse monoclonal anti-FLAG M2 (F1804, MilliporeSigma): rabbit monoclonal anti-NELL2 (ab181376, Abcam); goat polyclonal anti-PGK1 (sc-17943, Santa Cruz Biotechnology); rabbit polyclonal anti-Robo3 (LS-C345713, LSBio); goat polyclonal anti-Robo3 (PA5-18714, Thermo Fisher Scientific); mouse monoclonal anti-cdc42 (ACD03, Cytoskeleton); rabbit polyclonal anti-Rac1/2/3 (2465, Cell Signaling Technologies); rabbit polyclonal anti-Rho A (2117, Cell Signaling Technologies); goat polyclonal anti-BRG1 (A303-877A, Bethyl Laboratories); rabbit monoclonal anti-BRG1 (49360, Cell Signaling Technologies); rabbit polyclonal anti-BRM (A301-014A-T, Bethyl Laboratories); mouse monoclonal anti-ARID1A/BAF250) (sc-32761, Santa Cruz Biotechnology); rabbit polyclonal anti-BAF170 (A301-039A-T, Bethyl Laboratories); rabbit monoclonal anti-BAF155 (11956, Cell Signaling Technologies); rabbit polyclonal anti-BAF60B (A301-596A-T, Bethyl Laboratories); rabbit polyclonal anti-BAF57 (A300-810A-T, Bethyl Laboratories); rabbit polyclonal anti-BAF53A (A301-391A-T, Bethyl Laboratories); rabbit monoclonal anti-BAF47 (8745, Cell Signaling Technologies); rabbit polyclonal anti-BRD9 (A303-781A-T, Bethyl Laboratories); rabbit monoclonal anti-SS18 (21792, Cell Signaling Technologies); rabbit monoclonal anti-CD133 (64326, Cell Signaling Technologies); rabbit polyclonal anti-srGAP1 (A301-286A-T, Bethyl Laboratories); rabbit polyclonal anti-srGAP2 (GTX130797, GeneTex); mouse monoclonal anti-tubulin (DMIA, Thermo Fisher Scientific); rabbit polyclonal anti-β-actin (4967, Cell Signaling Technologies); mouse monoclonal anti-Rpb1 (2629, Cell Signaling Technologies); rabbit monoclonal anti-cdc6 (3387, Cell Signaling Technologies); rabbit monoclonal anti-caveolin-1 (3267, Cell Signaling Technologies); rabbit polyclonal anti-phospho-caveolin-1 (3251, Cell Signaling Technologies); rabbit monoclonal anti-Src (2123, Cell Signaling Technologies); rabbit monoclonal anti-phospho-Src Family (6943, Cell Signaling Technologies); and rabbit polyclonal anti-GDF6 (NBP1-91934, Novus Biologicals). The following HRP-conjugated secondary antibodies were used: goat anti-rabbit (7074) and goat anti-mouse (7076) (Cell Signaling Technologies); donkey anti-goat (A50)-201P, Bethyl Laboratories)."}, "[4]": {"system": "CD133^low population", "assay": "Proliferation of sorted CD133low population (IncuCyte)", "type": "cell-based, human", "conditions": "FIG. 5A", "procedure": "Cell proliferation and xenograft tumorigenicity assays. Anchorage-dependent cell proliferation was assessed by IncuCyte live-cell imaging system (Essen BioScience). The IncuCyte system monitors cell proliferation by analyzing the occupied area (% confluence) of cell images over time. At least four fields from four wells were assayed for each experimental condition. The cell seeding density was 2000 cells per well in a 96-well plate. For each assay, biological replicates were performed to confirm the reproducibility of results. Anchorage-independent cell proliferation was evaluated by soft agar colony formation assays. A-673 cells were infected with lentiviruses expressing shRNAs against NELL2 or scrambled shRNA and were selected with 2 μg/ml puromycin. Four days after infection, 4×10^3 cells were plated in soft agar. The soft agar cultures were composed of two layers; a base layer [4 ml in a 60-mm dish; DMEM/10% fetal bovine serum/0.6% noble agar (A5431, MilliporeSigma)/penicillin/streptomycin] and a cell layer (2 ml in a 60-mm dish; DMEM/10% fetal bovine serum/0.3% noble agar/penicillin/streptomycin). Colonies were grown for three weeks and counted. Colonies (>50 cells) were scored by randomly counting 10 fields per dish. Sphere formation assays were done (Dasgupta, A., et al. (2017) Oncotarget 8, 77292-77308) using ultra-low attachment 6-well plates (Corning: seeding density 1×10^4 cells/well) and DMEM/F-12 medium supplemented with B27, human recombinant epidermal growth factor (20 ng/ml), and basic fibroblast growth factor (20 ng/ml). For xenograft tumorigenicity assays, cells were subcutaneously injected into the flanks of SCID mice (2×10^6 cells/injection, five mice/group). Tumor growth was monitored weekly using a caliper. While it is not possible to predict the effect size, the sample size of five mice per group was chosen based on experience with xenograft experiments. Mice were randomly allocated to treatment groups. Blinding of the researcher measuring tumor size was employed.\nFlow cytometry. […]"}, "[5]": {"system": "cdc42 and Rac", "assay": "GST-PAKI pull-down of active cdc42 and Rac", "type": "cell-based, human", "conditions": "FIG. 3D", "procedure": "GST pull-down assays. The active form of cdc42, Rac, and Rho A was analyzed by pull-down of whole cell lysate with GST-PAKI (active cdc42 and Rac) and GST-RBD (active Rho A) followed by immunoblotting for cdc42, Rac, and Rho A as described (Ren, X. D., et al. (1999) EMBO J 18, 578-585)."}, "[6]": {"system": "A-673 and EW8 cells", "assay": "Proliferation of NELL2- or Robo3-silenced Ewing sarcoma cells (IncuCyte)", "type": "cell-based, human", "conditions": "A-673 cells transfected with NELL2 siRNAs, recombinant NELL2 250 ng/ml", "procedure": "Transfection and viral infection. Calcium phosphate co-precipitation was used for transfection of 293T cells. Lentiviruses were prepared by transfection in 293T cells following System Biosciences' protocol, and the cells infected with lentiviruses were selected with 2 μg/mL puromycin for 48 hours. The target sequences for shRNAs are as follows: FLI1 C-terminus shRNA, […] (SEQ ID NO: 20); luciferase shRNA, […] (SEQ ID NO: 21); NELL2 shRNA-1, […] (SEQ ID NO: 22); and NELL2 shRNA-2, […] (SEQ ID NO: 23). The following siRNAs were used: human NELL2 siRNA SMARTpool (M-012185-00); Dharmacon), human Robo3 siRNA SMARTpool (M-026504-00; Dharmacon), human Robo3 siRNAs NM_022370 (SASI_Hs01_00099511, SASI_Hs01_00099512, SASI_Hs01_00099513, SASI_Hs01_00099514, SASI_Hs01_00099515 and SASI_Hs01_00099516; MilliporeSigma), human cdc42 siRNA SMARTpool (M-005057-01; Dharmacon), human CD133 siRNA SMARTpool (M-010630-01; Dharmacon), human srGAP1 siRNA SMARTpool (M-026974-00; Dharmacon), srGAP2 siRNA SMARTpool (M-021531-03; Dharmacon), human caveolin-1 siRNA SMARTpool (M-003467-01; Dharmacon), human GDF6 siRNA SMARTpool (M-0330055-01; Dharmacon), and Non-Targeting siRNA Pool #2 (D-0012Jun. 14, 2005; Dharmacon), siRNA transfection of cell lines was performed using Lipofectamine™ RNAiMAX Transfection Reagent (Thermo Fisher).\nCell proliferation and xenograft tumorigenicity assays. Anchorage-dependent cell proliferation was assessed by IncuCyte live-cell imaging system (Essen BioScience). The IncuCyte system monitors cell proliferation by analyzing the occupied area (% confluence) of cell images over time. At least four fields from four wells were assayed for each experimental condition. The cell seeding density was 2000 cells per well in a 96-well plate. […] Anchorage-independent cell proliferation was evaluated by soft agar colony formation assays. […] Colonies were grown for three weeks and counted. Colonies (>50 cells) were scored by randomly counting 10 fields per dish. […] Tumor growth was monitored weekly using a caliper. […]"}}, "note": "“Also recorded” adds a separate entry of the source."}
{"molecule": "B1", "values": [{"measurement": "Size of the BAF complexes after NELL2 silencing", "setting": "[1]", "value": "largely restored the size"}, {"measurement": "Accumulation of Robo3-FLAG on the cell surface after NELL2 silencing", "setting": "[2]", "value": "reversed"}, {"measurement": "BAF subunit levels in NELL2 siRNA-transfected cells", "setting": "[3]; A-673 and EW8 cells, recombinant NELL2 250 ng/ml, FIG. 3J", "value": "restores the protein levels of BAF subunits; also recorded: rescued"}, {"measurement": "CD133 and BAF subunit protein levels in the CD133low population", "setting": "[3]; four or twenty-four hours, FIG. 5B", "value": "increases CD133 and BAF subunits; also recorded: increased CD133, BRG1, BAF250A, BAF155, and BAF47"}, {"measurement": "BRG1, BAF155, and BAF47 levels after NELL2 silencing in the presence of dasatinib", "setting": "[3]; recombinant NELL2 250 ng/ml, dasatinib present", "value": "rescued"}, {"measurement": "Recombinant NELL2 concentration able to rescue the slow growth of the CD133low population", "setting": "[4]", "value": "≥ 250", "unit": "ng/mL"}, {"measurement": "Slow growth of the CD133low population", "setting": "[4]", "value": "can be rescued; also recorded: rescues the slow growth"}, {"measurement": "Activation of cdc42 and Rac by NELL2 silencing", "setting": "[5]; lane 1-3", "value": "abolished"}, {"measurement": "Active cdc42 and active Rac in srGAP1- and srGAP2-silenced cells", "setting": "[5]; lane 4-6", "value": "not affected"}, {"measurement": "Proliferation inhibition by NELL2 silencing, rescue by recombinant protein", "setting": "[6]", "value": "rescues proliferation arrest; also recorded: completely rescued"}, {"measurement": "Proliferation inhibition by NELL2 silencing, rescue by recombinant protein", "setting": "[6]; listed as Recombinant NELL2", "value": "able to rescue the proliferation"}]}
